B1: Intersectin-1, residues 909 to 971; numbered along this chain, Q15811 (parent)
chain: QGEKVEGLQAQALYPWRAKKDNHLNFNKNDVITVLEQQDMWWFGEVQGQKGWFPKSYVKLISG

Variants of: B1
Experiment: abundance fitness (aPCA) (normalised: wild type 0, dead -1); higher = more abundant; growth selection in yeast, the domain comes from the species named
Conditions: Homo sapiens

Abundance fitness, by site and new letter:
N27: M -0.037, Q -0.143, V 0.157, T -0.307, K -0.191, R -0.016, A -0.114, S -0.408, H -0.708, E 0.054, G -0.185
N29: M -0.034, R -0.172, F -0.196, L -0.269, T -0.311, P -0.728, A -0.113, S -0.128, K -0.324, C -0.185, G -0.031, W -0.345, Q -0.041, H 0.104, Y -0.282, D -0.081, E -0.024
R17: Q -0.066, K -0.359, E -0.049, V 0.061, W -0.24, T -0.097, L -0.021, S -0.043, F -0.141, H -0.108, P -0.293, A -0.19, M -0.081, G -0.306, D -0.163
A18: M -0.09, D -0.109, W -0.362, S -0.058, C -0.189, N -0.086, Y -0.365, T -0.065, E -0.234, R -0.267, Q -0.494, G 0.043, P -0.034, L -0.274, K -0.059, V -0.215
L35: T -0.327, S -0.114, C 0.145, M -0.019, R -0.173, Q -0.058, A -0.612, F -0.284, V -0.34, K 0.168, G -0.033, E -0.243, W 0.111
V34: T -0.711, E -0.549, W -0.524, L -0.343, I 0.221, S -0.424, P -0.646, Y -0.856, R -0.776, C -0.427, G -0.455, M -0.772
D21: W -0.112, R -0.125, E -0.096, T -0.03, C -0.167, G -0.068, N -0.265, S -0.071, M -0.434, Y -0.102, H 0.01, L -0.012, P -0.005, Q 0.145, V 0.007, A 0, F -0.131
T33: V -0.113, M -0.068, C -0.159, S -0.104, K -0.1, H -0.201, I -0.213, P -0.897, Y -0.016, F -0.242, R -0.034, W -0.175, G -0.196, D 0.086, E -0.089, N -0.233, L -0.158, A -0.071
N22: A -0.118, P 0.037, Q 0.015, W -0.172, K 0.022, S 0.036, H -0.301, V -0.313, M -0.4, L -0.279, R -0.142, G -0.018, T 0.003, C 0.051
Q37: I -0.286, A -0.036, H -0.274, E -0.159, G -0.085, F -0.078, C -0.127
K19: C -0.048, F 0.032, V 0.021, E 0, H -0.114, T 0.033, D 0.026, Y -0.078, A -0.018, I -0.028, P -0.139, S 0.008, Q 0.069, L -0.045, N -0.055
K20: S -0.011, Y -0.15, F -0.101, H -0.133, T -0.079, D -0.097, N 0.053, M -0.06, V -0.117, Q -0.171, L -0.176, P -0.374, R -0.078, I -0.092, W -0.156, A 0.001
L24: T -0.694, C -0.199, K -1.14, W -0.778, D -1.26, F -0.466, Q -0.694, A -0.436, N -0.563, M -0.611, I -0.359, E -0.591, P -0.383, S -0.867
P15: L -0.338, M 0.114, K -0.14, N 0.087, Q 0.052, I -0.127, Y -0.269, R -0.018, S 0.011, W -0.746, T -0.059
N25: M -0.087, V -0.207, W -0.462, A -0.064, R -0.177, C -0.057, L -0.28, D -0.066, K 0.115, H 0.009, P -0.451, E -0.08, G -0.081, F -0.491, S -0.074
E36: M -0.177, D -0.761, W -0.117, T -0.149, Y -0.279, Q -0.344, A -0.026, L -0.094, C -0.015, R -0.147, V -0.044, G -0.076, H -0.235, K 0.017
D30: E -0.089, M -0.252, G -0.75, Y -0.469, T -0.15, I -0.677, N -0.396, Q -0.036, R -0.778, H -0.511, L -0.751, S -0.259, F -0.742, K -0.783, P -0.759, C -0.166, W -0.331, V -0.357
F26: C -0.723, Q -1, V -0.335, I -0.072, A -0.767, E -1.07, L -0.078, R -1.01, G -1.02, M 0.014, S -0.866
H23: T -0.207, G -0.164, L -0.114, F -0.123, Y -0.171, A -0.245, W -0.04, I -0.551, R -0.254, M -0.231, Q -0.135, V -0.172, S -0.316, C -0.492, P -0.596
K28: I -0.649, G -0.203, P -0.584, C -0.172, T 0.208, Q -0.197, H -0.253, V -0.256, Y -0.254, M -0.208, D -0.145, L -0.462, N -0.563, R -0.232, A -0.264, E -0.173
V31: R -0.03, P -0.325, H -0.117, Y -0.058, Q -0.102, C -0.08, A -0.274, E -0.185, M 0.003, F -0.022, K -0.006, D -0.484, W -0.132, L -0.022, G -0.476, S -0.224, I 0.011
W16: G -0.744, F -0.092, V -0.357, M -0.281, K -0.427, E -0.888, L -0.046, I 0.126, Q -0.396, R -0.115, N -0.199, H -0.051, C -0.157, Y -0.32, S -0.053, T -0.646, P -0.691
I32: F -0.423, L -0.23, H -0.692, D -0.568, Q -1, M -0.446, V -0.052, P -0.42, A -0.7, R -0.766, W -0.869, G -0.658, T -0.97, K -0.965, E -1.03
